Experimental data published in publication PMC13681993 (2026).

Tests used:
[1] = target: T1, EGFR C-tail Y1016/Y1138 980-1210 (Homo sapiens, UniProt P00533); test: BLI
T1 chain: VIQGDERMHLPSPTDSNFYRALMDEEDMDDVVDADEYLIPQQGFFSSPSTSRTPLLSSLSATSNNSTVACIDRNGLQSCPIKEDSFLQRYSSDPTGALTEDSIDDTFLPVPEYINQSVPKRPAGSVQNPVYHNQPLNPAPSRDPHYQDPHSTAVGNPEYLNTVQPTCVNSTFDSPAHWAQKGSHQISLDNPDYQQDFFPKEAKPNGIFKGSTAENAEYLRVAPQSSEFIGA

[2] = target: T2, EGFR C-tail Y1016/Y1092 980-1210 (Homo sapiens, UniProt P00533); test: BLI
T2 chain: T1 chain

Kd [1]: 63.4 nM
Kd [2]: 429 nM
B1: PLCγ1 tandem SH2 N-SH2-C-SH2 (protein)
chain: WFHGKLGAGRDGRHIAERLLTEYCIETGAPDGSFLVRESETFVGDYTLSFWRNGKVQHCRIHSRQDAGTPKFFLTDNLVFDSLYDLITHYQQVPLRCNEFEMRLSEPVPQTNAHESKEWYHASLTRAQAEHMLMRVPRDGAFLVRKRNEPNSYAISFRAEGKIKHCRVQQEGQTVMLGNSEFDSLVDLISYYEKHPLYRKMKLRYPI
